Data reported in the supplement of paper PMC7125110.
± gives the standard error. This sample holds only a part of the variants without activity.

B1: glmS ribozyme (parent)
chain: AUAAAAGCGCCAGAACUACAGAAAUGUAGUUGACGAGGAGGAGGUUUAUCGAAUUUUCGGCGGAUGCCUCCAAA

Columns and labels:
Conditions in all cases: with glucosamine-6-phosphate
glucosamine-6-phosphate [1] = variants of: B1; assay: self-cleavage kobs at 40 uM GlcN6P; higher = faster cleavage; RNA array
How it was run: (§1)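 Tiles bearing barcoded ribozyme variants, transcribed in situ by E. coli RNA polymerase on sequenced MiSeq chips, were imaged over ~14 h at 37 °C using a hybridised Cy3 probe. Glucosamine-6-phosphate was supplied at 40 μM to 10 mM in HEPES/KCl/Mg(OAc)2 buffer. kobs came from one- or two-exponential decay fits to normalised per-tile medians, and weighted Michaelis–Menten fits then provided kcat and KM.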

glucosamine-6-phosphate [2] = variants of: B1; assay: self-cleavage kobs at 160 uM GlcN6P; higher = faster cleavage; RNA array
How it was run: as §1

glucosamine-6-phosphate [3] = variants of: B1; assay: self-cleavage kobs at 640 uM GlcN6P; higher = faster cleavage; RNA array
How it was run: as §1

glucosamine-6-phosphate [4] = variants of: B1; assay: self-cleavage kobs at 10000 uM GlcN6P; higher = faster cleavage; RNA array
How it was run: as §1

glucosamine-6-phosphate [5] = variants of: B1; assay: self-cleavage kobs at 2500 uM GlcN6P; higher = faster cleavage; RNA array
How it was run: as §1

| Variant | self-cleavage kobs at 40 uM GlcN6P (glucosamine-6-phosphate [1]) [s⁻¹] | self-cleavage kobs at 160 uM GlcN6P (glucosamine-6-phosphate [2]) [s⁻¹] | self-cleavage kobs at 640 uM GlcN6P (glucosamine-6-phosphate [3]) [s⁻¹] | self-cleavage kobs at 10000 uM GlcN6P (glucosamine-6-phosphate [4]) [s⁻¹] | self-cleavage kobs at 2500 uM GlcN6P (glucosamine-6-phosphate [5]) [s⁻¹] |
| --- | --- | --- | --- | --- | --- |
| G59A U65G | < 1e-05 | – | – | – | – |
| G7U G13A C67U | < 1e-05 | – | – | – | – |
| A6C C10G | < 1e-05 | < 1e-05 | < 1e-05 | < 1e-05 | – |
| U31A G62C | < 1e-05 | < 1e-05 | – | < 1e-05 | < 1e-05 |
| A14G A36U A48U | < 1e-05 | – | – | – | – |
| G7U A33G U55A | < 1e-05 | – | – | < 1e-05 | – |
| C68A U69C | < 1e-05 | – | – | 4.51e-05 ± 1.6e-05 | – |
| G37A U56A | 1.92e-05 ± 6.8e-06 | 4.84e-05 ± 1.8e-05 | – | 0.000962 ± 0.00011 | – |
| U57G C61U | < 1e-05 | – | – | – | – |
| C8G C50G C67A | 0.000144 ± 2.5e-05 | – | – | 0.000113 ± 1.8e-05 | – |
| G51A U54A U55A | < 1e-05 | – | – | – | – |
| G7C U55G | < 1e-05 | – | – | < 1e-05 | – |
| G9U U49G | < 1e-05 | < 1e-05 | < 1e-05 | < 1e-05 | – |
| G13A G63A | < 1e-05 | < 1e-05 | – | < 1e-05 | – |
| G7A G29C | < 1e-05 | – | – | – | < 1e-05 |
| C11G G37U A53G | < 1e-05 | – | – | – | – |
| U31A U45G U54G C58A C61A | < 1e-05 | < 1e-05 | – | < 1e-05 | – |
| C16G G38C | < 1e-05 | < 1e-05 | – | – | – |
| G7A C8G G9C C10G A12C G13A A14G C16A U17C U31A | 0.000115 ± 4.2e-05 | – | – | 0.00555 ± 0.0017 | – |
| G35A U45C C71U | < 1e-05 | – | – | < 1e-05 | < 1e-05 |
| G13A G44A | < 1e-05 | – | – | – | – |
| C8A U45A A53U | < 1e-05 | – | – | – | – |
| C10G G29A G37A G38U G41C C71U | < 1e-05 | – | – | < 1e-05 | – |
| A48C G66C | < 1e-05 | < 1e-05 | – | 3.05e-05 ± 1.2e-05 | – |
| U49C G63A C67G | < 1e-05 | – | – | < 1e-05 | – |
| C16A C70U | 5.31e-05 ± 7.6e-06 | 0.000117 ± 3.3e-05 | 0.000192 ± 2.7e-05 | 0.0015 ± 0.00026 | 0.000365 ± 5.1e-05 |
| C10U U31A A53C U55G | < 1e-05 | – | – | – | – |
| A15G G29U U54C | 2.83e-05 ± 1.3e-05 | – | 0.000321 ± 0.0001 | – | 0.000796 ± 0.00016 |

| Variant | self-cleavage kobs at 40 uM GlcN6P (glucosamine-6-phosphate [1]) [s⁻¹] | self-cleavage kobs at 160 uM GlcN6P (glucosamine-6-phosphate [2]) [s⁻¹] | self-cleavage kobs at 640 uM GlcN6P (glucosamine-6-phosphate [3]) [s⁻¹] | self-cleavage kobs at 10000 uM GlcN6P (glucosamine-6-phosphate [4]) [s⁻¹] | self-cleavage kobs at 2500 uM GlcN6P (glucosamine-6-phosphate [5]) [s⁻¹] |
| --- | --- | --- | --- | --- | --- |
| A12U A15U C16A G41A G66A | < 1e-05 | – | – | – | – |
| U30A G38A U65C C70G | < 1e-05 | – | < 1e-05 | < 1e-05 | – |
| U47G A52U U69G | 4.05e-05 ± 1.5e-05 | – | – | 3.79e-05 ± 1.3e-05 | – |
| A33U G37U C50G U69A | 8.34e-05 ± 2.3e-05 | – | – | 0.000105 ± 2.5e-05 | – |
| A42C U65C | < 1e-05 | < 1e-05 | < 1e-05 | < 1e-05 | < 1e-05 |
| A33U C70A | < 1e-05 | – | – | – | – |
| A39G C68U | 0.000529 ± 5e-05 | 0.000783 ± 0.00025 | 0.00223 ± 0.0005 | 0.0156 ± 0.003 | 0.00387 ± 0.0012 |
| U30A U49C U55A | < 1e-05 | – | – | – | – |
| A36U U49G U65A | < 1e-05 | – | – | – | – |
| A6U G38A | < 1e-05 | – | – | – | – |
| A39U U69C | 0.000261 ± 7.1e-05 | – | – | 0.0107 ± 0.0039 | 0.0075 ± 0.0032 |
| U56G G63C | < 1e-05 | < 1e-05 | < 1e-05 | < 1e-05 | – |
| G51U A53C C67G | < 1e-05 | – | – | – | – |
| C8G C11G U30C C34G G44U G62A | < 1e-05 | – | – | < 1e-05 | – |
| C50G G62U | 0.00036 ± 0.00014 | 0.000115 ± 1.8e-05 | 0.000122 ± 2.7e-05 | 3.35e-05 ± 1e-05 | – |
| C8U A12G C50U C68G | 3.9e-05 ± 1.6e-05 | 0.000221 ± 8.4e-05 | 0.00022 ± 8.6e-05 | 6.84e-05 ± 1.7e-05 | 0.000476 ± 0.00018 |
| G29U G32A U65G G66A | < 1e-05 | – | – | 4.66e-05 ± 1.9e-05 | – |
| G41A U49C U56A | < 1e-05 | – | – | – | – |
| A15C C16G G41A | < 1e-05 | – | – | – | – |
| A6G A12C U45G C58U G59C G62A C68G | < 1e-05 | – | – | < 1e-05 | – |
| C34A C71A | < 1e-05 | – | < 1e-05 | < 1e-05 | – |
| U30A G43C | < 1e-05 | – | < 1e-05 | < 1e-05 | – |
| G13A C16G U65G | < 1e-05 | – | – | 3.8e-05 ± 1.6e-05 | – |
| U30G A53G | 0.000307 ± 5.3e-05 | 0.00064 ± 0.00013 | 0.00172 ± 0.0004 | 0.0151 ± 0.0037 | 0.00534 ± 0.00076 |
| A36U U45C C50U | < 1e-05 | – | – | – | – |
| G62C U65A | < 1e-05 | – | – | – | – |
| U31G G43C | < 1e-05 | < 1e-05 | < 1e-05 | – | < 1e-05 |
